Target: OcwA (Outer cell-wall protein A), nonaheme cytochrome TherJR_2595 from Thermincola potens JR (Thermincola potens JR)
Assay: SEC

## OcwA (Outer cell-wall protein A), nonaheme cytochrome TherJR_2595 from Thermincola potens JR (natural protein)
  stoichiometry N: 2
